# In publication PMC7804290:
# Changes are numbered by the printed parent chain.
# B1: scaffold 1 (RMP at -3) (structured_RNA)
# RNA 1: UUUUCAUGCAUCGCGUAGGCUCAUACCGUAUUGAGACCUUUUGGUCUCAAUACGGUA
# RNA 2: UGAGCCUACGCGAUG
# modifications: remdesivir monophosphate (RMP, 1'-cyano-4-aza-7,9-dideazaadenosine) at position 13 of strand 2, written as A
# B2: scaffold 2 (RMP at -4) (structured_RNA)
# RNA 1: B1 RNA 1 with U11C, C12U
# RNA 2: UGAGCCUACGCAGUG
# modifications: remdesivir monophosphate (RMP, 1'-cyano-4-aza-7,9-dideazaadenosine) at position 12 of strand 2, written as A (oligo R-4)
# B3: scaffold 3 (AMP at -4) (structured_RNA)
# RNA 1: B1 RNA 1 with U11C, C12U
# RNA 2: UGAGCCUACGCAGUG
# How the values were obtained:
# [1] = biological target: T1, nsp12 (RdRp catalytic subunit);nsp8;nsp7 (SARS-CoV-2;SARS-CoV-2;SARS-CoV-2, UniProt P0DTD1;P0DTD1;P0DTD1 4393-5324;3943-4140;3860-3942, ||); test: cryo-EM (complex isolated by SEC); details: protein: recombinant;recombinant;recombinant; copies: 1;2;1
# [2] = biological target: T1, nsp12 (RdRp catalytic subunit);nsp8;nsp7; test: cryo-EM (complex isolated by SEC); 1 mM Mg2+; AMP control for structure 2; details: protein: recombinant;recombinant;recombinant; copies: 1;2;1
Binder,binding result [1],binding result [2]
B1,binds,
B2,binds,
B3,,binds
